The values below come from patent US20190092852A1.

Test [1] has as its target T1, human IL-33 (R&D Systems, #3625-IL-010/CF) (human) (UniProt O95760).
T1 sequence (looked up): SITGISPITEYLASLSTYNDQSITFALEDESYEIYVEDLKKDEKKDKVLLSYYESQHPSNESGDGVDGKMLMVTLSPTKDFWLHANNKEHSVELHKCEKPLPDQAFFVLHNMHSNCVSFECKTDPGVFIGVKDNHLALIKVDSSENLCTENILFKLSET

For test [2], the target named is T1, human IL-33 (R&D Systems, #3625-IL-010/CF) (human). This is another data set of the same source.
For test [3] the target is unchanged. This is another data set of the same source.
Test [4] has the same target. This is another data set of the same source.
The target is the same in test [5]. The source holds these as a separate data set.
The target is the same in test [6]. Briefly: SPR Biacore T200, 25 C.
For test [7] the target is unchanged. Nature of the test: SPR Biacore T200, 37 C.
Test [8] addresses T2, biotinylated human IL-33 (human) (UniProt O95760).
T2 sequence (biotin-labeled with EZ-LINK NHS-PEG4-Biotin, looked up): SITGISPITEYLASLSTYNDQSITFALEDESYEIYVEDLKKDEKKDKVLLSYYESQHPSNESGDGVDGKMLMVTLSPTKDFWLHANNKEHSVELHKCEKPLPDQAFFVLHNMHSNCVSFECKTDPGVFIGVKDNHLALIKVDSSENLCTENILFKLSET
Nature of the test: competitive ELISA, biotin-huIL-33 to coated hST2-Fc.

Test [9] deals with T1, human IL-33 (R&D Systems, #3625-IL-010/CF) (human). The source holds these as a separate data set.
The target is the same in test [10]. This is another data set of the same source.
The target is the same in test [11]. The source holds these as a separate data set.
For test [12], the target named is human ST2L on HEK-BLUE IL-33/IL-1beta cells (human) (UniProt Q01638).
Chain of human ST2L on HEK-BLUE IL-33/IL-1beta cells (human) (Q01638 19-556 limits assumed): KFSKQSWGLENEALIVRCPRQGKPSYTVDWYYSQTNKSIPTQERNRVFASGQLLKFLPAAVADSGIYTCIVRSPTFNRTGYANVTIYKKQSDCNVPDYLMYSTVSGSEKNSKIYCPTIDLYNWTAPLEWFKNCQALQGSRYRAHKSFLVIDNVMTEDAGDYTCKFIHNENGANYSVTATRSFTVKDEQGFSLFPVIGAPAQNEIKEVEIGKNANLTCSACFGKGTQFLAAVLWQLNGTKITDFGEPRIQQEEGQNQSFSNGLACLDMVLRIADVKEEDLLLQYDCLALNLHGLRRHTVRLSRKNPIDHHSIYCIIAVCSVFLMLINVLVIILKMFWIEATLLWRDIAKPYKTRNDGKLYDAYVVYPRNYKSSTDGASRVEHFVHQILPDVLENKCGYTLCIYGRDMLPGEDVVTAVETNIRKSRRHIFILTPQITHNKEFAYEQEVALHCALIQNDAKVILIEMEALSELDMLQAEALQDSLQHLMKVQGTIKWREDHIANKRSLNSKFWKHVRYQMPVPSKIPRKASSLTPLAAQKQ
For test [13] the target is unchanged. This is another data set of the same source.

Read-outs that look alike come from different tables or passages of the source.

B1: H4H9672P (antibody, from another filing, IgG4, V domains shown)
VH: EVQLVESGGGLVQPGGSLRLSCAASGFTLRSYVMYWVRQGPGKGLEGVSGISGSSGGTYYTDSVKGRFTISRDNSKNTLFLQMNSLRAEDTAVYFCARSVYSTTWYGGFQHWGQGTLVTVSS
VL: DIQMTQSPSSVSVSVGDRVTITCRASQVISSWLAWYQLKPGKAPKLLIYAASSLQSGVPSRFSGSGSGTDFTLTISGLQPEDFAVYYCQQTNSFPLTFGGGTKVEIK
As for B1, in [1], the IC50; SEAP reporter (OD 620), HEK-BLUE IL-33/IL-1beta cells, 10 pM hIL-33 stood at 9.8e-10 M. This molecule showed an IC50, IL-33-induced phospho-p38 in primary human basophils, 500 pM hIL-33 in [2] of 5.7e-13 M. In test [3], this molecule showed an IC50 (read off the curve) of 0.6 pM. In addition, the Ph-p38 MFI at 0.4 nM Ab (500 pM human IL-33, primary basophils) in test [4] was 113 MFI. This molecule also came in with a Ph-p38 MFI at 2 nM Ab (500 pM human IL-33, primary basophils) in [5] of 61 MFI. In test [6], this molecule showed a Kd of 839 pM, a koff of 0.000806 s⁻¹, a kon of 960000 M⁻¹ s⁻¹ and a t1/2 of 14 min. In [7], the Kd was determined as 531 pM, the dissociation rate constant (koff) stood at 0.00127 s⁻¹, the kon is 2.39e+06 M⁻¹ s⁻¹ and the t1/2 was determined as 9 min. In test [8], this molecule had an IC50 of 220 pM and a Maximum Blocking of 77%.

B2: H4H9660P (antibody, from another filing, IgG4, V domains shown)
VH: EVQLVESGGGLVQPGGSLRLSCAASGITLSSYGMSWVRQAPGKGLEWVASIFGSGGGPYYADSVKGRFTMSRDNSKNTLYLQMNSLRAEDTAVYYCAKDRYSGSYYGGFDYWGRGTLVTVSS
VL: DIQMTQSPSSVSASVGDRVTITCRASQGITSWLAWYQQKPGKAPTLLIYAASSLQTGVPSRFSGSGSGTDFTLTISSLQPEHFATYYCQQANSFPPTFGGGTKVEIK
Molecule B2 had an IC50; SEAP reporter (OD 620), HEK-BLUE IL-33/IL-1beta cells, 10 pM hIL-33 in [1] of 3.8e-11 M. The IC50; IFN-gamma ELISA, primary human NK cells, 260 pM hIL-33 + IL-12 in [9] was 2.4e-10 M. In addition, the IC50, IL-33-induced phospho-p38 in primary human basophils, 500 pM hIL-33 in test [2] came to 4.8e-13 M. Moreover, in test [10], the IC50 (read off the curve) stood at 0.5 pM. The molecule further displayed a Ph-p38 MFI at 0.4 nM Ab (500 pM human IL-33, primary basophils) in [4] of 105 MFI. Also, the Ph-p38 MFI at 2 nM Ab (500 pM human IL-33, primary basophils) in test [5] came out at 29 MFI. In addition, in [6], the Kd came out at 670 pM, the koff turned out to be 0.00039 s⁻¹, the kon stood at 581000 M⁻¹ s⁻¹ and the t1/2 turned out to be 30 min. In addition, in [7], the dissociation constant Kd came to 302 pM, the koff came to 0.000413 s⁻¹, the on-rate (kon) came out at 1.37e+06 M⁻¹ s⁻¹ and the t1/2 came to 28 min. In test [8], this molecule returned an IC50 of 92 pM and a Maximum Blocking of 78%.

B3: H4H9667P (antibody, from another filing, IgG4, V domains shown)
VH: EVQLVESGGGLVQPGGSLRLSCAASGFTFSTYSMHWVRQAPGKGLEYVSTINNNGDTTYYADSVKGRFTISRDNSKNTLYLQLGSLRPEDMAVYYCARQTYTSSWYGGFDSWGQGTLVTVSS
VL: DIQMTQSPSSVSASVGDRVTITCRASQGITSWLAWYQQKPGKAPKLLIYAASNLQSGVPSRFSGSGSGTDFTLTITSLQPEDFATYYCQQANSLPFTFGPGTKVDIK
With B3, the IC50; SEAP reporter (OD 620), HEK-BLUE IL-33/IL-1beta cells, 10 pM hIL-33 in test [1] came to 1e-09 M. For the same molecule, the IC50, IL-33-induced phospho-p38 in primary human basophils, 500 pM hIL-33 in [2] was 2e-12 M. Also, the IC50 (read off the curve) in [11] was found to be 2 pM. This molecule also had a Ph-p38 MFI at 0.4 nM Ab (500 pM human IL-33, primary basophils) in [4] of 111 MFI. Further, the Ph-p38 MFI at 2 nM Ab (500 pM human IL-33, primary basophils) in [5] came to 68 MFI. Also, in test [6], the dissociation constant Kd was found to be 525 pM, the koff worked out at 0.000328 s⁻¹, the on-rate constant (kon) came out at 626000 M⁻¹ s⁻¹ and the t1/2 is 35 min. In [7], this molecule returned a dissociation constant Kd of 411 pM, a koff of 0.000497 s⁻¹, an on-rate constant (kon) of 1.21e+06 M⁻¹ s⁻¹ and a t1/2 of 23 min. In [8], this molecule displayed an IC50 of 410 pM and a Maximum Blocking of 77%.

B4: H4H9676P (antibody, from another filing, IgG4, V domains shown)
VH: EVQLVESGGGLVQPGGSLRLSCSASGFTFSSYAMNWVRQAPGKGLEWVTAISGSGGGTYYADSVKGRFTISRDNSKNSLFLQLNSLRAEDTAVYYCAKQTYTSSWYGGFDIWGQGTMVTVSS
VL: DIQMTQSPSSVSASVGDRVTITCRASQGFSSWLAWYQQIPGKAPKLLIYAASRLQSGVPSRFRGSGSGTDFTLTISSLQPEDFATYYCQQANSFPLTFGGGTKVEIK
B4 gave an IC50; SEAP reporter (OD 620), HEK-BLUE IL-33/IL-1beta cells, 10 pM hIL-33 in test [1] of 8.2e-10 M. Further, in [9], the IC50; IFN-gamma ELISA, primary human NK cells, 260 pM hIL-33 + IL-12 was found to be 1.2e-09 M. Further, the IC50, IL-33-induced phospho-p38 in primary human basophils, 500 pM hIL-33 in test [2] amounted to 9.1e-13 M. In addition, in test [3], the IC50 (read off the curve) was found to be 0.9 pM. In [4], this molecule registered a Ph-p38 MFI at 0.4 nM Ab (500 pM human IL-33, primary basophils) of 132 MFI. In [5], this molecule gave a Ph-p38 MFI at 2 nM Ab (500 pM human IL-33, primary basophils) of 61 MFI. For the same molecule, in test [6], the Kd was found to be 560 pM, the off-rate (koff) came out at 0.001 s⁻¹, the on-rate (kon) came out at 1.79e+06 M⁻¹ s⁻¹ and the t1/2 is 12 min. In [7], this molecule displayed a Kd of 457 pM, a dissociation rate constant (koff) of 0.00158 s⁻¹, an on-rate constant (kon) of 3.47e+06 M⁻¹ s⁻¹ and a t1/2 of 7 min. Further, in test [8], the half-inhibitory concentration (IC50) was 970 pM and the Maximum Blocking was 73%.

B5: cynomolgus monkey N-terminal 6-His-tagged and C-terminal Avi-tagged IL-33 (S112-T270) (ligand)
chain: MHHHHHHGENLYFQGSITGISPITESLASLSTYNDQSITFALEDESYEIYVEDLKKDKKKDKVLLSYYESQHPSSESGDGVDGKMLMVTLSPTKDFWLQANNKEHSVELHKCEKPLPDQAFFVLHNRSFNCVSFECKTDPGVFIGVKDNHLALIKVDYSENLGSENILFKLSETGNSGGGLNDIFEAQKIEWHE
B5: the EC50 (SEAP reporter OD 620, HEK-BLUE IL-33/IL-1beta cells) in [12] is 8.7 pM; in test [13], 21 pM.
